Values of other authors in article PMC4440832.

Key:
BMP5 (Homo sapiens) = BMP5 (Homo sapiens) (UniProt P22003); assay: SPR
BMP6 (Homo sapiens) = BMP6 (Homo sapiens) (UniProt P22004); assay: SPR
BMP7 (Homo sapiens) = BMP7 (Homo sapiens) (UniProt P18075); assay: SPR
BMP2 (Homo sapiens) [1] = molecular target: BMP2 (Homo sapiens) (UniProt P12643); assay: SPR
BMP2 (Homo sapiens) [2] = molecular target: BMP2 (Homo sapiens) (UniProt P12643); assay: radioligand binding
BMP4 (Homo sapiens) [3] = molecular target: BMP4 (Homo sapiens) (UniProt P12644); assay: radioligand binding
BMP4 (Homo sapiens) [4] = molecular target: BMP4 (Homo sapiens) (UniProt P12644); assay: SPR
netrin = netrin (UniProt O95631)

Sequence of BMP6 (Homo sapiens) (P22004 375-513): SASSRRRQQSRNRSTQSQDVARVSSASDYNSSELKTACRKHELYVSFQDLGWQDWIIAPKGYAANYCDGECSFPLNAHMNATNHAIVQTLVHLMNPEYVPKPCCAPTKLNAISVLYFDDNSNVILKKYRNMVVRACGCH
Sequence of HJV (Q6ZVN8 36-400): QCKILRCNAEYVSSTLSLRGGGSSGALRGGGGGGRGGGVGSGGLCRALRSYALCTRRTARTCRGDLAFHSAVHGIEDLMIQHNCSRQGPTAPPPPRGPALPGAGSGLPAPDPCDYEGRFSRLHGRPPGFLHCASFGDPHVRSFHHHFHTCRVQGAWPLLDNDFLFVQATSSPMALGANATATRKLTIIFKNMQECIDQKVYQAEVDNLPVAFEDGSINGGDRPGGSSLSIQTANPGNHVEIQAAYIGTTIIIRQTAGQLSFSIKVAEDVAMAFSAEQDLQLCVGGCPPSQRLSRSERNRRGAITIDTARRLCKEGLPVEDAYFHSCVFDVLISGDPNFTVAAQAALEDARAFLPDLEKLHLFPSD
Sequence of RGMb (Q6NW40 46-413): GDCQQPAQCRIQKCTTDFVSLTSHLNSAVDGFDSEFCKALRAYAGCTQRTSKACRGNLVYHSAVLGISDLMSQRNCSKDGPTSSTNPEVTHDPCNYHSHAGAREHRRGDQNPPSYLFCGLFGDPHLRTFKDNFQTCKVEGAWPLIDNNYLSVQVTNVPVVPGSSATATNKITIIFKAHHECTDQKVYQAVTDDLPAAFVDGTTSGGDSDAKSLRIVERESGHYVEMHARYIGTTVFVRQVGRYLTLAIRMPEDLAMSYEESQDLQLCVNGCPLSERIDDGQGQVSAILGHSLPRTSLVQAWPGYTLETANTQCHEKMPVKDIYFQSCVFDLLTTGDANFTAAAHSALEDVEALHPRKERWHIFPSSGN
Sequence of RGMa.Fc ECD (Q6PCX7 48-427): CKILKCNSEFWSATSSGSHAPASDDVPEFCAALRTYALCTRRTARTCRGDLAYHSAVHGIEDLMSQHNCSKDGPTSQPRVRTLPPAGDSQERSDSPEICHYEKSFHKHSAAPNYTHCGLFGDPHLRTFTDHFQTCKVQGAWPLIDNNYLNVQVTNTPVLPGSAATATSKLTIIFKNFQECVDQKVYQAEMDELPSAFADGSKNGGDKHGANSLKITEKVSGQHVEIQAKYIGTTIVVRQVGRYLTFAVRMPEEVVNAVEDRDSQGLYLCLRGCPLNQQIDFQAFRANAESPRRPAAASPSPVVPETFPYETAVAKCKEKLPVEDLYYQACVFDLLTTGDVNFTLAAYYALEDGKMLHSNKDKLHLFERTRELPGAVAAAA
Sequence of BMP2 (Homo sapiens) (P12643 283-396): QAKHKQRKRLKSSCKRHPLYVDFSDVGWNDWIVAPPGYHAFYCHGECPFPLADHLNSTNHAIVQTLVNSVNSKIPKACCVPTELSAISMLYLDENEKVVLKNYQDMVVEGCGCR
Sequence of RGMa (Q96B86 48-424): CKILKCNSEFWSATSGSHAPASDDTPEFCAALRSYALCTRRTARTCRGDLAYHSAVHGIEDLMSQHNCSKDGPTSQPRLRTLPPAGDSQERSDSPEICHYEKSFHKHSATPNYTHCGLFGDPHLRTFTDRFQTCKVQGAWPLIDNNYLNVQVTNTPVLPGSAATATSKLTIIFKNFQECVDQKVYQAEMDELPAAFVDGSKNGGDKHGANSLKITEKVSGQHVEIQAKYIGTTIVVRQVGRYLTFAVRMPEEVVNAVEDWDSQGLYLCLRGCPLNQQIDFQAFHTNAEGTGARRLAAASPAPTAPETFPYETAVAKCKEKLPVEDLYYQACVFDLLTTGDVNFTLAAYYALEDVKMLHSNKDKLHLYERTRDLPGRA
Sequence of BMP4 (Homo sapiens) (P12644 293-408): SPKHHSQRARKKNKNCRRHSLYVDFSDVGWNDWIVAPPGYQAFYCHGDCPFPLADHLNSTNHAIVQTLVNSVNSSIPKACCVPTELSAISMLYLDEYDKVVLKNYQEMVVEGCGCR
Sequence of BMP7 (Homo sapiens) (P18075 293-431): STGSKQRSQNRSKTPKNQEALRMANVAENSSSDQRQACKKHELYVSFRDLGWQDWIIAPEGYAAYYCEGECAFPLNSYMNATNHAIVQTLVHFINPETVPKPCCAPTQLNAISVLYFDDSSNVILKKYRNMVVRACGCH
Sequence of BMP5 (Homo sapiens) (P22003 317-454): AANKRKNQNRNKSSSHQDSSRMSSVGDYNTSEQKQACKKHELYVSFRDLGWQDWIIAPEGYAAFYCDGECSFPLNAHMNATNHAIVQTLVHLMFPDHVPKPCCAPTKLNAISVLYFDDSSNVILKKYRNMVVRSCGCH
Sequence of RGMb.Fc ECD (Q7TQ33 49-415): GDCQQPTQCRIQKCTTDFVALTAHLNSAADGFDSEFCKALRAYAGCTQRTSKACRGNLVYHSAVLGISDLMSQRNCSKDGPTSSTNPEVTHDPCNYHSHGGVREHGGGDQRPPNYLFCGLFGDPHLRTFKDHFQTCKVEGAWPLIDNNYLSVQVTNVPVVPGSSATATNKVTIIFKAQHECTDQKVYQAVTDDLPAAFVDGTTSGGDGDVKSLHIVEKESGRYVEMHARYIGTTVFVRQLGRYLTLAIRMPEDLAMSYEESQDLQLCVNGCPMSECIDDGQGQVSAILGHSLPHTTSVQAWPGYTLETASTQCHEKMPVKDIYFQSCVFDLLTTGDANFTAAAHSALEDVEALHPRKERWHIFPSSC
Sequence of neogenin (Q92859 34-1105): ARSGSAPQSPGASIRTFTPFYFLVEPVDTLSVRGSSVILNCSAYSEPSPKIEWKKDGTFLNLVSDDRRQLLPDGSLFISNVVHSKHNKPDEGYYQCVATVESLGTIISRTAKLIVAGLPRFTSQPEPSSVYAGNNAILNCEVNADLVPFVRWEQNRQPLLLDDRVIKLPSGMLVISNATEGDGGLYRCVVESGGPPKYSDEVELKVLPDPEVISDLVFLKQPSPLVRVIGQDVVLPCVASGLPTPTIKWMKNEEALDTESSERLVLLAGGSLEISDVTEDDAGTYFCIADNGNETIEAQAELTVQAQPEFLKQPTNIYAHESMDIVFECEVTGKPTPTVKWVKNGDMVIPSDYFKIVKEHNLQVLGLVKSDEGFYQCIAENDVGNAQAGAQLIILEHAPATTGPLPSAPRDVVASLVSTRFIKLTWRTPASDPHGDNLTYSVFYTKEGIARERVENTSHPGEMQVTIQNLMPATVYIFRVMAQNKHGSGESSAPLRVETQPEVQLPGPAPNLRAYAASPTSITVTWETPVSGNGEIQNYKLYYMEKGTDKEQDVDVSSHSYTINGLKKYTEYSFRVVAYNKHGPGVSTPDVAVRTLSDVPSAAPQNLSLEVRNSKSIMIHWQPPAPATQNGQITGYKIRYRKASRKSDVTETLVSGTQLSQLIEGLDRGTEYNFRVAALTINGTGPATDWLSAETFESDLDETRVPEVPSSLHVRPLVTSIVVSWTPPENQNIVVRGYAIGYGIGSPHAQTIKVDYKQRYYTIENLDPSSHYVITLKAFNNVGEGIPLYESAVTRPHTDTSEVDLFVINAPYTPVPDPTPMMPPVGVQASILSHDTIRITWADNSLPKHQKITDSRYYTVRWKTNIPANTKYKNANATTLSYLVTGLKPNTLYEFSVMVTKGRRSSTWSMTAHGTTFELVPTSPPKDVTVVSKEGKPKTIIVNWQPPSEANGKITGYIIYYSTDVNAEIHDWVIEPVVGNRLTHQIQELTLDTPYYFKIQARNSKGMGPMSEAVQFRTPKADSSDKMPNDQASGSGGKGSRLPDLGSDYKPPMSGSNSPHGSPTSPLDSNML

Row | Kd (BMP6 (Homo sapiens)) | Kd (BMP2 (Homo sapiens) [1]) | Kd (BMP2 (Homo sapiens) [2]) | other results | Substance
1 | 8.1 nM | – | – | Kd (BMP5 (Homo sapiens)): 17 nM; Kd (BMP7 (Homo sapiens)): 20 nM | HJV (from UniProt Q6ZVN8)
2 | 55 nM | 22 nM | – | – | RGMa (from UniProt Q96B86)
3 | – | 2.46 nM | 2.4 nM | Kd (BMP4 (Homo sapiens) [3]): 1.4 nM | RGMa.Fc ECD (from UniProt Q6PCX7)
4 | 28 nM | 5.5 nM | – | Kd (BMP4 (Homo sapiens) [4]): 2.6 nM | RGMb (from UniProt Q6NW40)
5 | – | – | 1.5 nM | – | RGMb.Fc ECD (from UniProt Q7TQ33)
6 | – | – | – | Kd (netrin): 2 nM | neogenin (from UniProt Q92859)
